# From patent publication US20140348862
# Target: HLA-B7 (human), P01889
# Experiment: competition, FACS 4C
# Settings: modification not given
row,Binder,IC50 [µM]
1,RPRRWKLQVL [PRAME 113-122],< 1

# Target: HLA-B*3501 (human), P01889
# Experiment: competition, FACS 4C
# Settings: modification not given
row,Binder,IC50 [µM]
1,LPRELFPPL [PRAME 48-56],< 1
2,EPILCPCFM [PRAME 499-507],0.32
3,LPTLAKFSPY [PRAME 246-255],< 1
4,GACDELFSY [PRAME 186-194],2.6
5,LPRELFPPLF [PRAME 48-57],1.58
6,IPVEVLVDL [PRAME 173-181],2.24
7,SPYLGQMINL [PRAME 253-262],1.98
8,FPPLFMAAF [PRAME 53-61],< 1
9,QPFIPVEVL [PRAME 170-178],2.83

# Target: HLA-B*3501 (human), P01889
# Experiment: competition, FACS 4C
# Settings: modification not given
# Remark: another data set of the same source
row,Binder,IC50 [µM]
1,EPILCPCFM [PRAME 499-507],< 1

# Target: HLA-B*3501 (human), P01889
# Experiment: competition, FACS 4C
# Settings: modification not given
# Remark: another data set of the same source
row,Binder,IC50 [µM]
1,LPTLAKFSPY [PRAME 246-255],0.11
